Assays:
MS2 coat protein [1] = assay: apparent KD of MS2 coat protein, switch ON state; designed switch direction (-1 OFF switch, 1 ON switch): -1; higher = weaker reporter binding; details: FMN input: 0 or 200 uM; Eterna round: R93 (includes R88 designs)
How it was run: (§1)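 Values are apparent KD, taken as the median for each design of fits to normalised binding curves from individual clusters. The designed RNA switches were transcribed on-chip from Illumina sequencing clusters and exposed to SNAP-549-labelled MS2 coat protein at twofold increasing amounts from 0.7 or 1.5 nM to 3 µM. Titration used 100 mM Tris-HCl pH 7.5, 80 mM KCl and 4 mM MgCl2, without or with constant ligand.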

MS2 coat protein [2] = assay: apparent KD of MS2 coat protein, switch OFF state (with FMN for OFF switches, without FMN for ON switches); designed switch direction (-1 OFF switch, 1 ON switch): -1; higher = weaker reporter binding; details: FMN input: 0 or 200 uM; Eterna round: R93 (includes R88 designs)
How it was run: as §1

Sequence | apparent KD of MS2 coat protein (MS2 coat protein [1]) [nM] | apparent KD of MS2 coat protein (MS2 coat protein [2]) [nM]
AAAAAGGCAGGAUAUACAUGAGGAUCACCCAUGUAAAGAAAGAAAGAGGUGAAAGAAAGUAGAAGGGCCAAAAA [Ex3 sub 2] | 92.9 | 72
AAAAAGGCAGGAUAUACGAACAUGUCGAAAGACGUGAAGGGACAUGAGGAUCACCCAUGUAGAAGGGUCAAGAA [Mat - Exclusion 2 - JL mod - D76] | 90.8 | 91.9
AAAAAGGCAGGAUAUACGUACAUGUCGAAAGACGUGAAGGGACAUGAGGAUCACCCAUGUAGAAGGGUCAAGAA [Mat - Exclusion 2 - JL mod - D77] | 111 | 93.4
AAAAAGGCAGGAUAUGCAUACACACGAAAAAAAACGCUGGGACAUGAGGAUCACCCAUGUAGAAGGGCCAAAAA [Dora Explored 10 - Jieux - Exclusion 2] | 57.2 | 38.6
AAAAAGGGAGGAUAUACAUGAGGAUCACCCAUGUAACAGACGAAAAAGAGUCUGAAAUGUAGAAGGCCCAAAAA [65%, Moding Exclusion3-cac2, 5] | 24.6 | 48.4
AAAAAGGUAGGAUAUACAUGAGGAUCACCCAUGUAAAAAAAAACAGAAAAAAACAAAUGUAGAAGGGCCAAAAA [Ex3 Malc#5] | 25.9 | 35.6
AAAAAGUCAGGAUAUACGUAAGUGCGAAAGCACAAAUGGAAACAUGAGGAUCACCCAUGUAGAAGGGACAAGAA [JL In the Red 02 (Mod)] | 36.7 | 23.6
AAAAAGUCAGGAUAUAGAAAAGGUCACGAAAGUGACAAAGGCUAGAAGGGACAUGAGGAUCACCCAUGUAAAAA [Mat - Mod of Eli] | 53.5 | 28.8
AAAAAGUCAGGAUAUGUACGAAAAAAUAAAAAAAUAAAAGUACAGAAGGGACAUGAGGAUCACCCAUGUCAGGG [EX4 393: Minimal 5] | 67.5 | 118
AAAAAGUCAGGAUAUGUGGAAAAAAUAAAAAAAAUAAAAACACAGAAGGGACAUGAGGAUCACCCAUGUAAAAA [Ex 4 May 19] | 71.7 | 47.2
AAAAAGUGAGGAUAUACAUGAGGAUCACCCAUGUGUAUAAAAAAAUACACAAAAGAAAGUAGAAGGCACUAAAA [Ex 3 Hot] | 21.1 | 58.6
AAAAAGUGAGGAUAUACAUGAGGAUCACCCAUGUUAAAAAAGGAAAAAAAAAAAAAAUGUAGAAGGCGCAAAAA [water's exclusion 3] | 36.9 | 36
AAAAAGUGAGGAUAUACGCUGAGGAGUAGACACAACCAGGCGUAGAAGGCACAUGAGGAUCACCCAUGUCCAAA [EX4 Malc#11] | 26.1 | 39.8
AAAAAGUGAGGAUAUGUCAAAGGUCACGAAAGUGACAAAGGACAGAAGGCACAUGAGGAUCACCCAUGUGAAAA [Fiskers Exclusion 4D1 65% - Early + late G segment 2] | 26.7 | 32.3
AAAAAGUGAGGAUAUUCGGAUAGGAAAACGAAAACCUAUCCGAAGAAGGCACAUGAGGAUCACCCAUGUGAAAA [67% Ecls-II - Early G + late G segment 1] | 27.5 | 24.1
AAAAAGUGAGGAUAUUCGGAUAGGAAAACGAAAACCUAUCCGAAGAAGGCACAUGAGGAUCACCCAUGUGGAAG [Mat - Exaclusion 4 - Eli mod - D47] | 37.2 | 48.3
AAAAAGUUAGGAUAUACAUGAGGAUCACCCAUGUGCACAUAUGGAGAAUAUGGUGGUAGUAGAAGGGACAAAAA [EX2 Malc#17] | 33.9 | 69.7
AAAAAUGGAGGAUAUACAUGAGGAUCACCCAUGUGUGGGUAUACUGUGUCGGCGUCAGGUAGAAGGCCAAAAAA [Gilly Gone Silly 28 - Jieux - Exclusion 3] | 132 | 121
AAAACGCUAGGAUAUACGAAAAAAAAGGGAGAAAAAAAGGGACAUGAGGAUCACCCAUGUAGAAGGAGCAAAAA [Diamond 88] | 38.5 | 105
AAAACGUGAGGAUAUGCACCAAAAAAGGUAUUUCGGGUACGACAUGAGGAUCACCCAUGUAGAAGGCACGAAAA [Frodo Flailing 13 - Jieux - Exclusion 2] | 22.8 | 19.8
AAAACUCGAGGAUAUACGAACAUGUCAAAAGACGUGAAGGGACAUGAGGAUCACCCAUGUAGAAGGCGAGAAAA [Mat - Exclusion 2 - JL-Eli mod - D45] | 55.4 | 123
AAAACUGGAGGAUAUACAUGAGGAUCACCCAUGUGUGGGUAGACUGUGUCGGCGUCAGGUAGAAGGCCACAAAA [Gilly Gone Silly 31 - Jieux - Exclusion 3] | 185 | 167
